Measurements: patent US20190248900A1 (Y BIOLOGICS, published 2019)
Changes are numbered by the printed parent chain.

T1: TNFSF8 (Homo sapiens (Human), UniProt P32971 63-234)
T1 sequence: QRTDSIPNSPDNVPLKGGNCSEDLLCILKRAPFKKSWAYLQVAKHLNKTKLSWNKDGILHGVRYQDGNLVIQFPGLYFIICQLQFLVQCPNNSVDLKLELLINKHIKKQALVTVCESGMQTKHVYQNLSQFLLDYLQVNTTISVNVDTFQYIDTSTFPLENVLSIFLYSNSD

T2: ICOSLG (Homo sapiens (Human), UniProt O75144 19-256)
T2 sequence: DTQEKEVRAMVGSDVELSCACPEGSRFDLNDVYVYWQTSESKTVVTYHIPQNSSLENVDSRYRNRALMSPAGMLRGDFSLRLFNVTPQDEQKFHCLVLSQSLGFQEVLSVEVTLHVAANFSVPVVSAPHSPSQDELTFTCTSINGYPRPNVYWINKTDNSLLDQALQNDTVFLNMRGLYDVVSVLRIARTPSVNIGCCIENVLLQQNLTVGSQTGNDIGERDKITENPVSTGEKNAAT

T3: RTN4RL1 (Homo sapiens (Human), UniProt Q86UN2 25-420)
T3 sequence: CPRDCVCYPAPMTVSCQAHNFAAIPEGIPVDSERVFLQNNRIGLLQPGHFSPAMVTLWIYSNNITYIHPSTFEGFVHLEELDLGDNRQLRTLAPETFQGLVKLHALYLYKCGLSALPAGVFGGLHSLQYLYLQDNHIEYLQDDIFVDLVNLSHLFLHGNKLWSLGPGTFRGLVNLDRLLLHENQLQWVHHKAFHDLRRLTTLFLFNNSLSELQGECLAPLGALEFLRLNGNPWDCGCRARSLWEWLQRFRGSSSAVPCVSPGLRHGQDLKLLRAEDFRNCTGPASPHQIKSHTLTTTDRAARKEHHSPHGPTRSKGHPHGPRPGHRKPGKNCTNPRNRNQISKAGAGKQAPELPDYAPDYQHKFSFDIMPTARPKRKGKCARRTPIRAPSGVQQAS

T4: FSTL3 (Homo sapiens (Human), UniProt O95633 27-263)
T4 sequence: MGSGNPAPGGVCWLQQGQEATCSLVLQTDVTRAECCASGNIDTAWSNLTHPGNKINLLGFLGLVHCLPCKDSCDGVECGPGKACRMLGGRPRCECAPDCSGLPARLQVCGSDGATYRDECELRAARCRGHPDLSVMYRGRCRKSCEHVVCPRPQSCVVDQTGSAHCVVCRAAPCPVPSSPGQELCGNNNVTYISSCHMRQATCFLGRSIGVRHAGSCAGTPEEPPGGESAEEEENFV

T5: TLR9 (Homo sapiens (Human), UniProt Q9NR96 26-818)
T5 sequence: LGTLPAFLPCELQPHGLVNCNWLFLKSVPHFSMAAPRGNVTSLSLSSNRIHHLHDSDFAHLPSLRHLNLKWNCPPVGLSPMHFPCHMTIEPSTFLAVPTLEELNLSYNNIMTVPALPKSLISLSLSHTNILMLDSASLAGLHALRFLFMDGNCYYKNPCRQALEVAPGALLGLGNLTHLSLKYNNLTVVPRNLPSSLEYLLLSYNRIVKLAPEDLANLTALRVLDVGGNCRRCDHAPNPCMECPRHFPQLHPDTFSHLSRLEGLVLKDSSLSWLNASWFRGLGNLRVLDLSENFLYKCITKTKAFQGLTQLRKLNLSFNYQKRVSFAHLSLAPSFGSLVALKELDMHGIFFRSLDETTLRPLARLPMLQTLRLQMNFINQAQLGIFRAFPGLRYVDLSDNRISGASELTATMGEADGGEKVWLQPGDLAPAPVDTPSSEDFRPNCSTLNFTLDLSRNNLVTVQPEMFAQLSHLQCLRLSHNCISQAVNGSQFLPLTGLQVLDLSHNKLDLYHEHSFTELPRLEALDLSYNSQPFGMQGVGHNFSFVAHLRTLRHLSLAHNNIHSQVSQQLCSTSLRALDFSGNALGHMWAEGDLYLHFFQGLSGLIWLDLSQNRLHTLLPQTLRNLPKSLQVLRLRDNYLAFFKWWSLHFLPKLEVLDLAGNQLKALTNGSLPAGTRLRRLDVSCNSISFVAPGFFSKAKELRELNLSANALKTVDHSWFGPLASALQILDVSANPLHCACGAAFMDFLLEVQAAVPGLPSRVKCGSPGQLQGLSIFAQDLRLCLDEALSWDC

T6: TMED1 (Homo sapiens (Human), UniProt Q13445 24-194)
T6 sequence: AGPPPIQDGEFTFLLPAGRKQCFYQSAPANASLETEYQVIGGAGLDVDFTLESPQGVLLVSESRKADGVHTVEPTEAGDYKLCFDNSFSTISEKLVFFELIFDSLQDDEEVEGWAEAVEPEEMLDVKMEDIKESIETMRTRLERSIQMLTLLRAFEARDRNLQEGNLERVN

T7: NBL1 (Homo sapiens (Human), UniProt P41271 17-181)
T7 sequence: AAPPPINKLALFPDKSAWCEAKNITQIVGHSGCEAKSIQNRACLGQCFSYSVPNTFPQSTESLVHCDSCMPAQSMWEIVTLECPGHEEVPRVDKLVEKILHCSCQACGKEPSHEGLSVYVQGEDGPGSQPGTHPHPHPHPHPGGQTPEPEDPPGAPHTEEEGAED

T8: BAMBI (Homo sapiens (Human), UniProt Q13145 21-152)
T8 sequence: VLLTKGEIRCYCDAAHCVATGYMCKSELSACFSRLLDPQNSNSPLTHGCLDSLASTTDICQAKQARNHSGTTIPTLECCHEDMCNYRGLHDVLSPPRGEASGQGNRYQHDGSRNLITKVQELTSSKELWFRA

B1: PD1-45D6 (antibody, V domains shown)
VH: QVQLVESGGGVVQPGRSLRLSCAASGFTFSSYAMHWVRQVPGKGLEWVAVISYDGNDKYYADSVKGRFTISRDNSKNTLYLQMNSLRAEDTAVYYCVPTTFEYWGQGSQVTVSS
VL: DIVMTQTPLSLPVTPGEAASISCRSSQSLLDSDDGKTYLDWYLQKPGQSPQLLIYTLSYRASGVPDRFSGSGSGTEFNLRISRVEAEDVGIYYCMQRVEFPFTFGQGTKLDIK
notes: scFv-phage in the screening ELISA; whole IgG in the other assays
B2: PD1-41C9 (antibody, V domains shown)
VH: QMQLVESGGGVVQPGRSLRLSCAASGFTFSSYAMHWVRQAPGKGLEWVAVISYDGSNKYYADSVKGRFTISRDNSKNTLYLQMNRLRSEDTAVYYCTTTTFDSWGQGTLITVSS
VL: DIVMTQTPLSLPVTPGEAASISCRSSQSLLDSEDGNTYLDWYLQKPGQSPQLLIYTLSHRASGVPDRFSGSGSGTDFTLKISRVAAEDVGLYYCLQRMGFPYTFGQGTKLDIK
notes: as for B1
B3: PD1-49A2 (antibody, V domains shown)
VH: B2 VH with M2V, S75P, R85S, S88A, Q106R, I110V
VL: B2 VL with T7S, A18P, L30F, E33D, A85E, L91I, L110V, D111E
notes: scFv-phage in the screening ELISA; whole IgG in the other assays; also called Parent 49A2

Biological target: T1, TNFSF8
Test: ELISA

Binder	binding result
B1	no binding (tested: 1 ug/ml)
B2	no binding (tested: 1 ug/ml)
B3	no binding (tested: 1 ug/ml)

Biological target: T2, ICOSLG
Test: ELISA

Binder	binding result
B1	no binding (tested: 1 ug/ml)
B2	no binding (tested: 1 ug/ml)
B3	no binding (tested: 1 ug/ml)

Biological target: PLXDC2 (Homo sapiens (Human), UniProt Q6UX71 31-454)
Test: ELISA

Chain of PLXDC2 (Q6UX71 31-454 limits assumed): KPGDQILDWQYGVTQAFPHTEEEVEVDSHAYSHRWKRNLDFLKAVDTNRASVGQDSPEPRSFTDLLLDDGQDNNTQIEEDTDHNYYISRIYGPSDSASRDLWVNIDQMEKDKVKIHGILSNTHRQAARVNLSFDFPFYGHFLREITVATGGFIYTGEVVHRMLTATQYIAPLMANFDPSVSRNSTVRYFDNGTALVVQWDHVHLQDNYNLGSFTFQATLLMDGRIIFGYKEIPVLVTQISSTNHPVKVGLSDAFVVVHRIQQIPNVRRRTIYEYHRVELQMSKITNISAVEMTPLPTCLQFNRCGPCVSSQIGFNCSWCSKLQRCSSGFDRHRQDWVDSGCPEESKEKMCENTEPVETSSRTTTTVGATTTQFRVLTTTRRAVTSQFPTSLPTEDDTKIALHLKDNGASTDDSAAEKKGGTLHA

Binder	binding result
B1	no binding (tested: 1 ug/ml)
B2	no binding (tested: 1 ug/ml)
B3	no binding (tested: 1 ug/ml)

Biological target: LRRN1 (Homo sapiens (Human), UniProt Q6UXK5 26-631)
Test: ELISA

Chain of LRRN1 (Q6UXK5 26-631 limits assumed): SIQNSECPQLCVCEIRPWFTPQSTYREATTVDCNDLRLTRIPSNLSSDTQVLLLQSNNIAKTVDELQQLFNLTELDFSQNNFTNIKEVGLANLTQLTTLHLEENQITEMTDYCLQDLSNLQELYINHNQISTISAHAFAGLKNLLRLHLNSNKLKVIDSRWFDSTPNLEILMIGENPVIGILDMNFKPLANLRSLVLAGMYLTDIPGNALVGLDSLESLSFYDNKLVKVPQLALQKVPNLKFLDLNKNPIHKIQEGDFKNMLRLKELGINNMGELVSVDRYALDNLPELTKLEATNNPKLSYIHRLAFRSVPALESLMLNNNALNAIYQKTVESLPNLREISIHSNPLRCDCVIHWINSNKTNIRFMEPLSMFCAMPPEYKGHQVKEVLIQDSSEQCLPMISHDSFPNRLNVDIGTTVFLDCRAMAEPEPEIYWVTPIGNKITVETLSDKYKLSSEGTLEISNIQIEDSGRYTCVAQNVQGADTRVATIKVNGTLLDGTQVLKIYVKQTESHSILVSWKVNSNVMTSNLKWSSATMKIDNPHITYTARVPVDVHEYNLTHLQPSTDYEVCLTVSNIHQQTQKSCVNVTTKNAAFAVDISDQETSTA

Binder	binding result
B1	no binding (tested: 1 ug/ml)
B2	no binding (tested: 1 ug/ml)
B3	no binding (tested: 1 ug/ml)

Biological target: T3, RTN4RL1
Test: ELISA

Binder	binding result
B1	no binding (tested: 1 ug/ml)
B2	no binding (tested: 1 ug/ml)
B3	no binding (tested: 1 ug/ml)

Biological target: T4, FSTL3
Test: ELISA

Binder	binding result
B1	no binding (tested: 1 ug/ml)
B2	no binding (tested: 1 ug/ml)
B3	no binding (tested: 1 ug/ml)

Biological target: T5, TLR9
Test: ELISA

Binder	binding result
B1	no binding (tested: 1 ug/ml)
B2	no binding (tested: 1 ug/ml)
B3	no binding (tested: 1 ug/ml)

Biological target: T6, TMED1
Test: ELISA

Binder	binding result
B1	no binding (tested: 1 ug/ml)
B2	no binding (tested: 1 ug/ml)
B3	no binding (tested: 1 ug/ml)

Biological target: T7, NBL1
Test: ELISA

Binder	binding result
B1	no binding (tested: 1 ug/ml)
B2	no binding (tested: 1 ug/ml)
B3	no binding (tested: 1 ug/ml)

Biological target: T8, BAMBI
Test: ELISA

Binder	binding result
B1	no binding (tested: 1 ug/ml)
B2	no binding (tested: 1 ug/ml)
B3	no binding (tested: 1 ug/ml)
